Assay results published in the supplement of paper PMC10065799, “High-throughput profiling of sequence recognition by tyrosine kinases and SH2 domains using bacterial peptide display” (eLife, 2023).

Columns and labels:
[1] = target: Fyn (UniProt P06241); assay: phosphorylation enrichment, bacterial display (enrichment ratio); higher = better substrate or ligand; peptides without Tyr show the background
[2] = target: FGFR3 (UniProt P22607); assay: as above
[3] = system: c-Abl (mouse); assay: as above
[4] = target: Jak2 (UniProt O60674); assay: as above
[5] = target: Hck (UniProt P08631); assay: as above
[6] = system: AncSZ; assay: as above
[7] = target: EPHB2 (UniProt P29323); assay: as above
[8] = system: c-Src; assay: as above
[9] = target: FGFR1 (UniProt P11362); assay: as above
[10] = target: EPHB1 (UniProt P54762); assay: as above
[11] = target: Fes (UniProt P07332); assay: as above
[12] = system: Fer (mouse); assay: as above
[13] = target: MERTK (UniProt Q12866); assay: as above
[14] = target: SHP2-C SH2; assay: SH2 binding enrichment of the phosphorylated peptide, bacterial display (enrichment ratio); higher = better substrate or ligand; peptides without Tyr show the background
[15] = target: c-Src SH2; assay: as above
[16] = target: Grb2 SH2 (UniProt P62993); assay: as above
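Wherever SH2 binding enrichment of the phosphorylated peptide, bacterial display is given: peptide library displayed on the E. coli surface as eCPX fusions, selected cells deep-sequenced, score is each peptide's frequency after selection divided by its frequency in the input.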
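Wherever phosphorylation enrichment, bacterial display is given: 11-residue human phosphosite peptides and single-mutation variants displayed on the E. coli surface, counted by deep sequencing, each peptide's frequency after selection divided by its frequency in the unselected input library; frequency after pTyr selection over input frequency; kinase dosed for 20-30% of maximal phosphorylation in three min.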

Sequence of EPHB1 (P54762 whole entry, looked up): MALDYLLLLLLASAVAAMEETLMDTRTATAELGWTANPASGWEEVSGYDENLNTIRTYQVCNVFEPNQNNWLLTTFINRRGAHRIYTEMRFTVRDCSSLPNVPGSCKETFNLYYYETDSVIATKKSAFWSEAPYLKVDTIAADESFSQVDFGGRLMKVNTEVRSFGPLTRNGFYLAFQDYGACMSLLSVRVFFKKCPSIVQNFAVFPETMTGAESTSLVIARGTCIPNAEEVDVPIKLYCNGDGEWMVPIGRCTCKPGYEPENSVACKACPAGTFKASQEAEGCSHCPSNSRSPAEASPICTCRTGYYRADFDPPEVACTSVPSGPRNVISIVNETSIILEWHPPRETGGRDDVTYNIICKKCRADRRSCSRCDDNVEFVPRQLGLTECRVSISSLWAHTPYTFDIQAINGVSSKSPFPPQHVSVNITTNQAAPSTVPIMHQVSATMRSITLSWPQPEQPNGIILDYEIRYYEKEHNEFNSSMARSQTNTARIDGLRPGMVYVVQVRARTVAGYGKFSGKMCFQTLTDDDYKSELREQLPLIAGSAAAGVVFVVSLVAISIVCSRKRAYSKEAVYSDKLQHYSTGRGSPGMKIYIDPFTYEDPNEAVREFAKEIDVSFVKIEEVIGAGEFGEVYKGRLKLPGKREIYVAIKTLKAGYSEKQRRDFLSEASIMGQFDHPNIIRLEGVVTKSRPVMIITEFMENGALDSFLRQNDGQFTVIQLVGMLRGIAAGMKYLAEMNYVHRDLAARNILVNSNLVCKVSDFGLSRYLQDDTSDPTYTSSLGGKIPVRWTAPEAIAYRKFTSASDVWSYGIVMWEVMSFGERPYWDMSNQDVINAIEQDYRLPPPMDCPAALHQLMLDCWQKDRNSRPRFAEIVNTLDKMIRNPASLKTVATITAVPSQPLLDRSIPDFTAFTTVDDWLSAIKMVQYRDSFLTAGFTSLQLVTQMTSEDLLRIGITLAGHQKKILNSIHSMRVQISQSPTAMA
Sequence of Jak2 (O60674 whole entry, looked up): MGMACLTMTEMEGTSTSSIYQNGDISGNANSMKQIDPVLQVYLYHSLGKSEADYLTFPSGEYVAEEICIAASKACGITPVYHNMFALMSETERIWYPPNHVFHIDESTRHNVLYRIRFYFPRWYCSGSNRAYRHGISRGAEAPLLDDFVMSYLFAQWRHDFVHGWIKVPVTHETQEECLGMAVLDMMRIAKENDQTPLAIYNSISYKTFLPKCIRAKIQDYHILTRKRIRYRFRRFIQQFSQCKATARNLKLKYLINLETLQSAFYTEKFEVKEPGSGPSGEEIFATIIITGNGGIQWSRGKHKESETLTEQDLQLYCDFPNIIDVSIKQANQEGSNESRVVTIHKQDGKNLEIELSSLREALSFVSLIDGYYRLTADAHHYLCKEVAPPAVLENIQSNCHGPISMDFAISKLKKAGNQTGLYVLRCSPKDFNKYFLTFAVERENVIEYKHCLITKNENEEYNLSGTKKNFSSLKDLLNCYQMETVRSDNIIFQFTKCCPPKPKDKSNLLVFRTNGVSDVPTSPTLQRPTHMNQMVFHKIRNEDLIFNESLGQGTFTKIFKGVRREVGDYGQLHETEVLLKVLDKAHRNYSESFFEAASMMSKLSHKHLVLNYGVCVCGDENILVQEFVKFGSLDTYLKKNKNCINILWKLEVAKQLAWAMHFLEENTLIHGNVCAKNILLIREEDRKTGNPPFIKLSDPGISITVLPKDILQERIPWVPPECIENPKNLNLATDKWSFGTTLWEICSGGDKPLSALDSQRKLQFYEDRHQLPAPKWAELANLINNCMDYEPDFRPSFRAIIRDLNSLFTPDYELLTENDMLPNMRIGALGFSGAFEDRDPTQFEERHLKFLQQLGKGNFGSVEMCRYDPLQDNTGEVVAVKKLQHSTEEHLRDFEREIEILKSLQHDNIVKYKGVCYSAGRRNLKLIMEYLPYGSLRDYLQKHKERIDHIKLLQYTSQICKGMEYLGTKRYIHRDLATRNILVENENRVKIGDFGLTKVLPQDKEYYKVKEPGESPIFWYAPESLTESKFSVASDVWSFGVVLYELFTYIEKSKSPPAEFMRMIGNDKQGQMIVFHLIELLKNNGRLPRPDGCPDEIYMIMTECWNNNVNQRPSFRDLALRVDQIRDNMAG
Sequence of Fyn (P06241 whole entry, looked up): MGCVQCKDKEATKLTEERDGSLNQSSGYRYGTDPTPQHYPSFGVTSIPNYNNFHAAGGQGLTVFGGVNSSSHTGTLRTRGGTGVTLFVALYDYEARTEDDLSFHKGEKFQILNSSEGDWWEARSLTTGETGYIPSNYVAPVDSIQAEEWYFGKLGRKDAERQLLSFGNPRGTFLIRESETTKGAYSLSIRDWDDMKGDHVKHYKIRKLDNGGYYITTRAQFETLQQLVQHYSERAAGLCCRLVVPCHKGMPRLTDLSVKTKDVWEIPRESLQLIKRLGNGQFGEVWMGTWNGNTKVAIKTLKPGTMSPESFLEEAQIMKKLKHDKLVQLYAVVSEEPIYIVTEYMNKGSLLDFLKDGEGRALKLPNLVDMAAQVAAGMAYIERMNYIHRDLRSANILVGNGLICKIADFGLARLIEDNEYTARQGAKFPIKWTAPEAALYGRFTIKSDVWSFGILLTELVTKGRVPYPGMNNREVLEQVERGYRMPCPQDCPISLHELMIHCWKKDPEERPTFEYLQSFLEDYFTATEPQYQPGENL
Sequence of MERTK (Q12866 whole entry, looked up): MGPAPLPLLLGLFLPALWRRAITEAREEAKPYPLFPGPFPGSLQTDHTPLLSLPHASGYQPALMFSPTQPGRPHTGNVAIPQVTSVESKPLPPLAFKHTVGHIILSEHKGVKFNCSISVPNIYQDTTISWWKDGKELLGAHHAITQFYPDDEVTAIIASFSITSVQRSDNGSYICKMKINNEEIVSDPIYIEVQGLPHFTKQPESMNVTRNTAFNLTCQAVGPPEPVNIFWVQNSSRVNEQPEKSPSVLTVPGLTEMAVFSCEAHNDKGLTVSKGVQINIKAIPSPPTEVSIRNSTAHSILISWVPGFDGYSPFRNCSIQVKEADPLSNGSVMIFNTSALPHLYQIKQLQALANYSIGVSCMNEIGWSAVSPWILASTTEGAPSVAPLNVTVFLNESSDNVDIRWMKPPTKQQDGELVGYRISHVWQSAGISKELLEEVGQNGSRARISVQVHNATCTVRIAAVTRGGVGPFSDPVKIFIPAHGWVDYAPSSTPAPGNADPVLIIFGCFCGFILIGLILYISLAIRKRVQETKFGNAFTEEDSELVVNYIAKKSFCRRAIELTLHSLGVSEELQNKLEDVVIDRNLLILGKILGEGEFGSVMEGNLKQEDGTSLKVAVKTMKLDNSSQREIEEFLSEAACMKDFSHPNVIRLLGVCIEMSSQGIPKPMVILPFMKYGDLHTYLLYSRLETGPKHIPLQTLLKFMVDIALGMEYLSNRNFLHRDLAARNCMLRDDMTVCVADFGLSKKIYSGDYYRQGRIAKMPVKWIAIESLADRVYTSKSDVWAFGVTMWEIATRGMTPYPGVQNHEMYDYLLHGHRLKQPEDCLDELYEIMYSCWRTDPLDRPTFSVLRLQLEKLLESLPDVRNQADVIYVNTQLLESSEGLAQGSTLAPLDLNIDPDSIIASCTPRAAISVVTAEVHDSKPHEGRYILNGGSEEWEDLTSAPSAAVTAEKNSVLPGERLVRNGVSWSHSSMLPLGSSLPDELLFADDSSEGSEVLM
Sequence of FGFR3 (P22607 whole entry, looked up): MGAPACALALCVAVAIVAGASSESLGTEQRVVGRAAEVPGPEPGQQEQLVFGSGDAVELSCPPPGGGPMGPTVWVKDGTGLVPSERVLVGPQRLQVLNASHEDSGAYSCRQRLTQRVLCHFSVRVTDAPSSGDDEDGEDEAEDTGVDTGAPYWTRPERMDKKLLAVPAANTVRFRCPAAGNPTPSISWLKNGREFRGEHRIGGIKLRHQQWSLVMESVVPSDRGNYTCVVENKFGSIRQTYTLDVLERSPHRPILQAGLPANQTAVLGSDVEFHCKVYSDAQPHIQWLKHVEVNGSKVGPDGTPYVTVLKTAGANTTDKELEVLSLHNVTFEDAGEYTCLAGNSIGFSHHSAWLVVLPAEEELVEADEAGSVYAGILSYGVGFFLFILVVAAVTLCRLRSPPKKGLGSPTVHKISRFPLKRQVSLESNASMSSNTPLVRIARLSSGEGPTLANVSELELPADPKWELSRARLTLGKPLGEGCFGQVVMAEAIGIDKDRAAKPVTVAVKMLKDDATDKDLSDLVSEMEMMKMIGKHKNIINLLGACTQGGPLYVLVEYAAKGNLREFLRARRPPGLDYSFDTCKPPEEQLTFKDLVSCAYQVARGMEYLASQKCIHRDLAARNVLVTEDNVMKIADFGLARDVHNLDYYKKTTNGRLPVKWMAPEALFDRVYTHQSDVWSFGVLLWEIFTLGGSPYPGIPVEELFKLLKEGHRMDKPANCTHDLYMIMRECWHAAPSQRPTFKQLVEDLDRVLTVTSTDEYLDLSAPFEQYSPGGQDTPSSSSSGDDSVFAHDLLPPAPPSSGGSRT
Sequence of Hck (P08631 whole entry, looked up): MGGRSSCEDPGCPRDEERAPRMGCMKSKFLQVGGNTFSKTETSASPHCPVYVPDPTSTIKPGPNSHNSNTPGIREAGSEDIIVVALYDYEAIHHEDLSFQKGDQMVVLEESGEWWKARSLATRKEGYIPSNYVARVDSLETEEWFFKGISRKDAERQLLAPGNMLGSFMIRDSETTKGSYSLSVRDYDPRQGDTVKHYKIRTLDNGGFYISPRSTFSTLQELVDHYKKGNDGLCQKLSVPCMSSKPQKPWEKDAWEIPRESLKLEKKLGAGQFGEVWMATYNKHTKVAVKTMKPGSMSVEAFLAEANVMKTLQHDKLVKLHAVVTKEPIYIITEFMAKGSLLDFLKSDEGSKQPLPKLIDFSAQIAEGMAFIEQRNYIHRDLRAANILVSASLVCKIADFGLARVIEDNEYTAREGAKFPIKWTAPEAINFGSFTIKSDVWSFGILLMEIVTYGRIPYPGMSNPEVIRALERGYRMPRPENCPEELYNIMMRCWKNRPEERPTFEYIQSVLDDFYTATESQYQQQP

Sequence	phosphorylation enrichment [1]	phosphorylation enrichment [2]	phosphorylation enrichment [3]	phosphorylation enrichment [4]	phosphorylation enrichment [5]	phosphorylation enrichment [6]	phosphorylation enrichment [7]	phosphorylation enrichment [8]	phosphorylation enrichment [9]	phosphorylation enrichment [10]	phosphorylation enrichment [11]	phosphorylation enrichment [12]	phosphorylation enrichment [13]	SH2 binding enrichment [14]	SH2 binding enrichment [15]	SH2 binding enrichment [16]
SRDTCYLVLAV [AMH_Y195_R194C]	0.555	1.12	1.06	1.4	0.651	1.52	0.684	0.666	0.786	0.719	1.48	0.62	0.552	0.616	0.453	0.752
CDDGKYVYVVT [RPS6KA3_Y488_Y483C]	0.84	1.15	1.05	1.42	0.75	1.48	0.777	0.863	0.834	0.896	1.6	0.798	0.525	0.548	0.443	0.75
EGLKVYINGTL [ADGRD1_Y183_V184I]	0.401	0.853	0.8	1.38	0.541	1.18	0.614	0.4	0.554	0.663	1.49	0.555	0.337	0.659	0.381	1.32
TLKDVYDDGKF [RPS6KA3_Y483_YF]	0.548	0.66	0.549	0.655	0.66	0.988	0.513	0.625	0.614	0.542	1.04	0.488	0.515	0.566	0.433	0.781
ETKENYGKTLK [CHL1_Y291]	0.61	0.508	0.414	0.504	0.498	0.526	0.297	0.433	0.325	0.348	0.541	0.351	0.383	0.562	0.664	1.16
SFNNKYGMVAQ [APOB_Y276_K273N_YF]	0.395	0.469	0.462	0.509	0.422	0.542	0.504	0.384	0.4	0.332	0.51	0.399	0.431	0.68	0.435	0.852
HELYVYKCDEN [DOCK3_Y548]	0.761	1.05	0.6	1.29	0.99	1.48	0.862	1.38	0.957	0.762	1.19	0.719	0.549	0.939	0.796	1.03
YGPPQYNMQYS [ERBB2IP_Y977_I979M]	0.547	0.448	0.481	0.496	0.746	0.794	0.426	0.499	0.442	0.472	0.577	0.499	0.478	0.661	0.434	0.849
PSTFRYERGSR [INPPL1_Y663_P659S_YF]	0.408	0.429	0.628	0.459	0.345	0.51	0.47	0.491	0.411	0.368	0.484	0.352	0.366	0.879	0.47	0.811
VTDGKYAFKPK [GTF2E2_Y137_I133T]	0.355	0.419	0.575	0.521	0.459	0.491	0.262	0.361	0.411	0.299	0.64	0.31	0.361	0.847	0.452	0.783
SKLTIYDARPS [MTM1_Y277]	2.4	0.751	0.593	0.655	7.23	0.779	0.737	2.05	0.606	0.629	1.17	0.484	0.825	0.595	0.466	0.792
IVEYAYNDKAI [PUM3_Y259]	0.505	0.702	0.859	1.15	0.539	1.28	0.69	0.474	0.501	0.705	1.27	0.631	0.397	0.656	0.571	0.761
IKIMGSSIRTI [IDS_Y490_Y490S]	0.411	0.45	0.526	0.492	0.435	0.557	0.393	0.414	0.502	0.436	0.53	0.387	0.424	0.717	0.533	0.836
PATYTYDEYKK [COL8A2_Y648]	1.67	0.728	1.38	0.868	1.55	1.43	0.883	3.07	0.749	0.745	1.3	0.558	1.02	0.799	1.48	0.551
SDYSRYARTSI [TERT_Y949_S948R]	0.443	0.351	0.46	0.549	0.428	0.59	0.495	0.444	0.428	0.434	0.581	0.388	0.444	0.535	0.723	0.755
ELSDGYWVVSN [TPP1_Y459_A454E]	0.507	1.21	0.778	1.63	0.647	1.39	0.664	0.588	1.3	0.559	1.34	0.528	0.396	0.616	7.16	0.636
